The text below walks through data of US20200317768A1 (published 2020).

T1: human FcγRIIaR extracellular domain with C-terminal His-tag (human, UniProt P12318 34-217)
T1 construct: also called human FcgRIIaR; FcγRIIa (type R)
T1 chain: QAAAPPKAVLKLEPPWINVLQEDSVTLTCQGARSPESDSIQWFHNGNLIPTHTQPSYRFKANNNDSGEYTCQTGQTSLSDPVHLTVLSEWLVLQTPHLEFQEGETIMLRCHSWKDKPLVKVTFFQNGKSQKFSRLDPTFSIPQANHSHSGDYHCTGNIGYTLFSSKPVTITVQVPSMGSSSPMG

T2: cynomolgus monkey FcγRIIa3 extracellular domain with C-terminal His-tag (cynomolgus monkey)
T2 construct: also called cyno FcgRIIa3; cynoFcγRIIa3
T2 chain: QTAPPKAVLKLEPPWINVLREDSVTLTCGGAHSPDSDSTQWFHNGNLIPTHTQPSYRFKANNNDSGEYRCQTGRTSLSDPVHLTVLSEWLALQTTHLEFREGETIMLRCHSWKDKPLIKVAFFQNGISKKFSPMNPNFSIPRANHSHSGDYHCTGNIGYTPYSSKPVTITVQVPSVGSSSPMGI

T3: human FcγRIIaH extracellular domain with C-terminal His-tag (human, UniProt P12318 34-217)
T3 construct: also called human FcgRIIaH; FcγRIIa (type H)
T3 sequence: T1 chain with R134H

T4: cynomolgus monkey FcγRIIa2 extracellular domain with C-terminal His-tag (cynomolgus monkey)
T4 construct: also called cyno FcgRIIa2; cynoFcγRIIa2
T4 chain: T2 chain with I127K, K130N, P133H, R142Q

T5: human FcγRIIb extracellular domain with C-terminal His-tag (human, UniProt P31994 43-217)
T5 construct: also called human FcgRIIb
T5 sequence: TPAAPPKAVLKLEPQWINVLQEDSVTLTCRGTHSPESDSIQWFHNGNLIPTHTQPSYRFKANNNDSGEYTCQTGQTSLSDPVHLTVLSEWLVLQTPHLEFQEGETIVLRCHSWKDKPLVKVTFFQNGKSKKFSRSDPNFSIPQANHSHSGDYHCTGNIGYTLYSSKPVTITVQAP

T6: cynomolgus monkey FcγRIIIaS extracellular domain with C-terminal His-tag (cynomolgus monkey, UniProt Q8SPW2 21-206 at identity 1.00))
T6 construct: also called cyno FcgRIIIaS; cynoFcγRIIIaS
T6 chain: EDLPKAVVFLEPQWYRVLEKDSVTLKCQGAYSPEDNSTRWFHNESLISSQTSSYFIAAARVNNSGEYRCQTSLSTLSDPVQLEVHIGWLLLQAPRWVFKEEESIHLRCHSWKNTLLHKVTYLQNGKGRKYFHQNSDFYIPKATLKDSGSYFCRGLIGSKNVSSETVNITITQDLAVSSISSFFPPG

T7: cynomolgus monkey FcγRIIa1 extracellular domain with C-terminal His-tag (cynomolgus monkey)
T7 construct: also called cyno FcgRIIa1; cynoFcγRIIa1
T7 chain: T2 chain with T95P, A121T, S128A, P133H, N135D

B1: M103205H795-MY209/M103202L889-SK1 (antibody, human IgG1, kappa)
heavy: QVTLKESGPVLVKPTETLTLTCTVSGIDLSHDDISWVRQAPGKGLEWVGIISYAGSTYYASWAKGRLTISKDTSKNQVVLTMTNMDPVDTATYYCARGVPAYSHGGDLWGQGTLVTVSSASTKGPSVFPLAPSSKSTSGGTAALGCLVKDYFPEPVTVSWNSGALTSGVHTFPAVLQSSGLYSLSSVVTVPSSSLGTQTYICNVNHKPSNTKVDKKVEPKSCDKTHTCPPCPAPELLNGPSVFLFPPKPKDTLMISRTPEVTCVVVDVSDEDPEVKFNWYVDGVEVHNAKTKPREELYNSTYRVVSVLTVLHQDWLNGKEYKCKVSNTALPKPIEKTISKAKGQPREPQVYTLPPSREEMTKNQVSLTCLVKGFYPSDIAVEWESNGQPENNYKTTPPVLDSDGSFFLYSKLTVDKSRWQQGNVFSCSVMHEALHNHYTQKSLSLSP
light: DIVMTQSPATLSLSPGERATLSCTSSQSVYHANWLSWFQQKPGQPPKLLIYWASTLAYGVPSRFSGSGSGTDFTLTISSLQPEDAATYYCAGGYGGGRYAFGQGTKVEIKRTVAAPSVFIFPPSDEQLKSGTASVVCLLNNFYPREAKVQWKVDNALQSGNSQESVTEQDSKDSTYSLSSTLTLSKADYEKHKVYACEVTHQGLSSPVTKSFNRGEC
notes: Substitutions introduced into M103205H795-SG1, expressed with M103202L889-SK1 as light chain; EU numbering
B2: M103205H795-MY283/M103202L889-SK1 (antibody, human IgG1, kappa)
heavy: B1 heavy with N238T, T328K
light: B1 light
notes: as for B1
B3: M103205H795-MY339/M103202L889-SK1 (antibody, human IgG1, kappa)
heavy: B1 heavy with N238L, L297Q, P398K
light: B1 light
notes: as for B1
B4: M103205H795-MY341/M103202L889-SK1 (antibody, human IgG1, kappa)
heavy: B1 heavy with N238L, P398K
light: B1 light
notes: as for B1
B5: M103205H795-MY380/M103202L889-SK1 (antibody, human IgG1, kappa)
heavy: B1 heavy with D270E, L297Q, T328K, P398K
light: B1 light
notes: as for B1
B6: M103205H795-MY386/M103202L889-SK1 (antibody, human IgG1, kappa)
heavy: B1 heavy with N238L
light: B1 light
notes: as for B1
B7: M103205H795-MY387/M103202L889-SK1 (antibody, human IgG1, kappa)
heavy: B1 heavy with N238T, S241V, L297Q, T328K
light: B1 light
notes: as for B1
B8: M103205H795-MY340/M103202L889-SK1 (antibody, human IgG1, kappa)
heavy: B1 heavy with N238L, T328K, P398K
light: B1 light
notes: as for B1
B9: M103205H795-MY389/M103202L889-SK1 (antibody, human IgG1, kappa)
heavy: B1 heavy with N238T, S241L, L297Q, T328K
light: B1 light
notes: as for B1
B10: M103205H795-MY388/M103202L889-SK1 (antibody, human IgG1, kappa)
heavy: B1 heavy with N238T, S241I, L297Q, T328K
light: B1 light
notes: as for B1
B11: M103205H795-MY342/M103202L889-SK1 (antibody, human IgG1, kappa)
heavy: B1 heavy with N238L, T328K, P398M
light: B1 light
notes: as for B1

Changes are numbered by the printed parent chain.

T8 sequence (P08637 17-208 F176V): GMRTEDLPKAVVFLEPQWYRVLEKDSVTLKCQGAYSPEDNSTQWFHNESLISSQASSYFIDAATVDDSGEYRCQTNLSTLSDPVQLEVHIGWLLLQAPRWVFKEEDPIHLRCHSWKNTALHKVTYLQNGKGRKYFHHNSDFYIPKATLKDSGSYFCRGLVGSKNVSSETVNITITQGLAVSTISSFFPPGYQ

The first assay addresses T1, human FcγRIIaR extracellular domain …. As to the kind of experiment: SPR (BIACORE), antibody captured, FcgR analyte. A general note: SPR reads the build-up and loss of mass on a sensor chip optically.
One may read the Kd as the equilibrium constant for the complex coming apart. For the molecule B1, binding was put at a Kd of 880 nM.
The same measure, in the same setting: in the case of B2 it was 350 nM.
In turn, B3 registered a Kd of 530 nM.
Same read-out and setting: in the case of B4 it was 420 nM; in that of B5, 850 nM; in that of B6, 1700 nM.
As to B7, the Kd stood at 200 nM.
The same measure, in the same setting: the result for B8 reads 830 nM; that for B9, 190 nM.
In turn, B10 displayed a Kd of 230 nM.
Same read-out and setting: in the case of B11 it was 1000 nM.

For a further assay, the target named is T2, cynomolgus monkey FcγRIIa3 …. Put plainly: SPR (BIACORE), antibody captured, FcgR analyte.
The molecule B1 gave a Kd of 1900 nM.
The same measure, in the same setting: the result for B2 reads 4400 nM.
Still for that read-out and setting: in the case of B3 it was 3800 nM; in that of B4, 8800 nM.
Same read-out and setting: in the case of B5 it was 3300 nM; in that of B6, 16000 nM.
As to B7, the Kd amounted to 1400 nM.
On the same count and under the same terms, in the case of B8 it was 23000 nM; in that of B9, 1400 nM; in that of B10, 1300 nM.
Turning to B11, the Kd amounted to 51000 nM.

The next assay addresses T8, human FcγRIIIaV extracellular domain with C-terminal His-tag (human, UniProt P08637 17-208).
T8 construct: also called human FcgRIIIaV
Put plainly: SPR (BIACORE), antibody captured, FcgR analyte.
With B1, the Kd was determined as 14000 nM.
Turning to B2, the Kd stood at 5700 nM.
The same measure, in the same setting: in the case of B3 it was 5600 nM; in that of B4, 7000 nM.
Molecule B5 registered a Kd of 10000 nM.
Take B6: binding was put at a Kd of 24000 nM.
Still for that read-out and setting: the result for B7 reads 4700 nM.
In the case of B8, binding was put at a Kd of 17000 nM.
Still for that read-out and setting: the result for B9 reads 3500 nM; that for B10, 4300 nM; that for B11, 25000 nM.

A further assay concerns the target T3, human FcγRIIaH extracellular domain …. Put plainly: SPR (BIACORE), antibody captured, FcgR analyte.
Molecule B1 gave a Kd of 570 nM.
Same read-out and setting: in the case of B2 it was 140 nM; in that of B3, 410 nM; in that of B4, 260 nM.
Molecule B5 returned a Kd of 430 nM.
Consider B6, for which binding was put at a Kd of 810 nM.
On the same count and under the same terms, in the case of B7 it was 340 nM; in that of B8, 310 nM; in that of B9, 270 nM.
Regarding B10, binding was put at a Kd of 330 nM.
As to B11, binding was put at a Kd of 370 nM.

For a further assay, the target named is T4, cynomolgus monkey FcγRIIa2 …. As to the kind of experiment: SPR (BIACORE), antibody captured, FcgR analyte.
On to B1, for which the Kd came out at 690 nM.
With B2, binding was characterised by a dissociation constant (Kd) of 1600 nM.
As for B3, the Kd came to 3000 nM.
B4 came in with a Kd of 2900 nM.
Same read-out and setting: the result for B5 reads 1000 nM.
B6: binding was put at a Kd of 5600 nM.
Same read-out and setting: in the case of B7 it was 19000 nM; in that of B8, 4900 nM; in that of B9, 16000 nM.
Same read-out and setting: the result for B10 reads 1700 nM.
On to B11, for which binding was characterised by a dissociation constant (Kd) of 8500 nM.

Another assay has as its target T5, human FcγRIIb extracellular domain with …. Put plainly: SPR (BIACORE), antibody captured, FcgR analyte.
On to B1, for which the affinity, expressed as Kd, was 500 nM.
Still for that read-out and setting: the result for B2 reads 1800 nM; that for B3, 2800 nM.
On the same count and under the same terms, the result for B4 reads 1800 nM.
Same read-out and setting: the result for B5 reads 480 nM; that for B6, 4600 nM; that for B7, 1600 nM.
In turn, B8 registered a Kd of 3300 nM.
For B9, the affinity, expressed as Kd, was 1100 nM.
The same measure, in the same setting: in the case of B10 it was 1500 nM; in that of B11, 3900 nM.

The target of the next assay is T6, cynomolgus monkey FcγRIIIaS …. Put plainly: SPR (BIACORE), antibody captured, FcgR analyte.
Take B1: the affinity, expressed as Kd, was 2200 nM.
On the same count and under the same terms, in the case of B2 it was 2200 nM.
Still for that read-out and setting: the result for B3 reads 760 nM; that for B4, 340 nM.
Still for that read-out and setting: the result for B5 reads 2800 nM; that for B6, 2500 nM; that for B7, 2500 nM.
In turn, B8 displayed a Kd of 2300 nM.
The same measure, in the same setting: in the case of B9 it was 1500 nM.
For the molecule B10, the Kd is 1600 nM.
Same read-out and setting: the result for B11 reads 2600 nM.

A further assay concerns the target T7, cynomolgus monkey FcγRIIa1 …. Put plainly: SPR (BIACORE), antibody captured, FcgR analyte.
B1: binding was characterised by a dissociation constant (Kd) of 630 nM.
In the case of B2, the affinity, expressed as Kd, was 1400 nM.
For B3, the Kd stood at 3400 nM.
On the same count and under the same terms, in the case of B4 it was 2500 nM; in that of B6, 5200 nM; in that of B7, 2300 nM.
In turn, B8 registered a Kd of 4300 nM.
Same read-out and setting: in the case of B9 it was 2000 nM; in that of B10, 2200 nM.
Still for that read-out and setting: in the case of B11 it was 5100 nM.

The target in another assay is T1, human FcγRIIaR extracellular domain …. As to the kind of experiment: SPR (BIACORE); KD of SG1 / KD of variant.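 Further: relative to parent M103205H795-SG1 carrying the SG1 human heavy chain constant region.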
As for B1, the “KD fold (SG1 = 1)” value was determined as 1.3 fold.
Same read-out and setting: in the case of B2 it was 1.1 fold; in that of B3, 1.7 fold; in that of B4, 2.6 fold.
Take B5: the “KD fold (SG1 = 1)” value turned out to be 1.3 fold.
B6: the “KD fold (SG1 = 1)” value is 0.6 fold.
The same measure, in the same setting: the result for B7 reads 3.5 fold; that for B8, 1.3 fold; that for B9, 5.8 fold.
The same measure, in the same setting: in the case of B10 it was 4.8 fold.
Regarding B11, the “KD fold (SG1 = 1)” value turned out to be 1.1 fold.
